The record followed here is patent US20210130444A1 (University of California, published 2021).

Assay [1] has as its target Myc-tagged human M1 AQP4 on U87MG cells (human) (UniProt P55087). Briefly: fluorescence ratio imaging on U87MG cells (FIG. 6C).
Assay [2] deals with Myc-tagged human M23 AQP4 on U87MG cells (human) (UniProt P55087). The assay is described as above.
Assay [3] addresses Myc-tagged human M1 AQP4 on U87MG cells (human) (UniProt P55087). As to the kind of experiment: fluorescence ratio imaging on U87MG cells expressing Myc-tagged AQP4, anti-mouse IgG Alexa 488 detection.
Assay [4] has as its target Myc-tagged human M23 AQP4 on U87MG cells (human) (UniProt P55087). Described as above.
Assay [5] addresses T1, human AQP4 M23 isoform on U87MG cells (human, UniProt P55087 23-323).
T1 construct: Tetramers that assemble into orthogonal arrays of particles (OAPs); The chain begins at Met-23 of the long isoform; also called M23 AQP4; M23-AQP4
As to the kind of experiment: fluorescence ratio imaging on U87MG cells, single-site binding model.

Assay [6] deals with T2, purified recombinant human M1 AQP4 reconstituted in proteoliposomes (human, UniProt P55087 1-323).
T2 construct: 3% (wt/wt) AQP4 in phosphatidylcholine:phosphatidylserine liposomes on a Biacore L1 chip; also called AQP4-reconstituted proteoliposomes; AQP4-proteoliposomes
T2 sequence (P55087 whole entry, form in doubt): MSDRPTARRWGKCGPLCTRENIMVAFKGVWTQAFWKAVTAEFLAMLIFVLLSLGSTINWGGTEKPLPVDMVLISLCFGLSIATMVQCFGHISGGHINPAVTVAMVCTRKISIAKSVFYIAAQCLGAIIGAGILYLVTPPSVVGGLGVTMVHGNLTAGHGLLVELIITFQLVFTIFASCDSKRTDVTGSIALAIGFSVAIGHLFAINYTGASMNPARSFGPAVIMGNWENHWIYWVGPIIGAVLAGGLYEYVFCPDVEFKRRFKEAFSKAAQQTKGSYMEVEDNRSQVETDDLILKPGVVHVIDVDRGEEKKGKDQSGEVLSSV
As to the kind of experiment: surface plasmon resonance (Biacore T-100), AQP4 proteoliposomes on L1 chip, antibody injected.
Procedure: Surface plasmon resonance. […] The mixture was dialyzed (10,000 dalton cut-off) against PBS at 4° C. for 48 h. […] Proteoliposomes were immobilized on a L1 sensor chip (Biacore) with four injections at 10 min/injection at 2 μl/min to achieve 6000 response units of proteoliposomes immobilization. The surface was then washed with two 20 s injections of 50 mM NaOH at 100 μl/min, and checked for surface quality with a 300 s injection of 0.01 mg/ml BSA at 20 μl/min. Flow channel 1 (Fc 1) was immobilized with 0% AQP4 as reference, and Fc 2 contained the AQP4 proteoliposomes. Binding studies were conducted with PBS at a flow rate of 15 μl/min. rAbs in PBS were injected for 80 s followed by a post-injection period of 240 s. Regeneration was performed by injection of 50 mM NaOH at 100 μl/min for 20 s. Binding studies were done in duplicate. Data were analyzed using Biacore T100 Evaluation software.
Binding of each monoclonal recombinant antibody to AQP4 in reconstituted proteoliposomes was measured by surface plasmon resonance.

Assay [7] deals with M23:CCA mixtures (human M23 AQP4 co-expressed with M1-C13A/C17A) on U87MG cells (human) (UniProt P55087). Briefly: two-colour fluorescence ratio imaging on transiently transfected U87MG cells, rAb-53 titration.
The target of assay [8] is T3, human AQP4 M1 isoform on U87MG cells (human, UniProt P55087 1-323).
T3 construct: Water channel; forms individual tetramers, no OAPs; also called M1 AQP4; M1-AQP4
T3 sequence (P55087 whole entry, canonical isoform): as the sequence (P55087 whole entry, form in doubt) above
Briefly: two-colour fluorescence ratio imaging on U87MG cells, rAb titration, single-site binding fit.
Source text: (§1) FIG. 4B summarizes concentration-dependence binding curves for three recombinant NMO-IgGs, together with curve fits for a single-site binding model.

The target in assay [9] is T1, human AQP4 M23 isoform on U87MG cells. The description is as above.
Source text: as §1
The target is the same in assay [10]. As to the kind of experiment: two-colour fluorescence ratio imaging on transiently transfected U87MG cells, rAb-53 titration.
For assay [11] the target is unchanged. The assay is described as above. The source holds these as a separate data set.
The target is the same in assay [12]. The assay is described as above. The source holds these as a separate data set.

T1 sequence (P55087 23-323 limits assumed): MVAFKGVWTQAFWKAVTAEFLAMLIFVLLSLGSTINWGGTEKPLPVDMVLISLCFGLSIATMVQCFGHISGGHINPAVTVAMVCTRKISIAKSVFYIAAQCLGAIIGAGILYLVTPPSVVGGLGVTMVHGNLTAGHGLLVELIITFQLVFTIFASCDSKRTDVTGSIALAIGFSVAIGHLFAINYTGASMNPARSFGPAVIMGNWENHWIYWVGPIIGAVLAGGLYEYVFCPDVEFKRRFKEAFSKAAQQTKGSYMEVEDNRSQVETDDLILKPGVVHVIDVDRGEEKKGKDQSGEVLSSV
Chain of Myc-tagged human M23 AQP4 on U87MG cells (human) (P55087 whole entry, canonical isoform): as the sequence (P55087 whole entry, form in doubt) above
Chain of Myc-tagged human M1 AQP4 on U87MG cells (human) (P55087 whole entry): as the sequence (P55087 whole entry, form in doubt) above

With “monoclonal mouse anti-Myc IgG (Covance) (antibody)”, the Kd in assay [1] and in [2] was 10 nM each time. The figures for the EC50 (read off the curve) in assay [3] and in assay [4] were 2 µg/mL and 1 µg/mL, respectively.

B1: rAb-53 (recombinant monoclonal NMO-IgG, non-mutated) (antibody, V domains shown)
VH: QVQLQESGAGLVKPSETLSLTCTVSGGSISGHYWNWIRQPPGKGLEWIGYIHYSGSTNYNPSLKSRVTISVDTSKNQFSLKLSSVTAADTAVYYCARAEGRGWSAFYYYYMEVWGKGSTVSVSS
VL: EIVLTQSPGTLSLSPGERATLSCRASQTVRTNYLAWFQQKPGQAPRLLIFGASSRATGIPDRFSGSGSGTDFTLTISRLEPEDFAVYYCQQYGSSPWTFGQGTKVEIKR
notes: Human recombinant IgG made in HEK293 cells; also called NMO-IgG (rAb-53)
With B1, the Kd was 44 nM in assay [5], 27 nM in [6] and 2800 nM in assay [8]. The koff in assay [6] came to 0.00038 s⁻¹. The kon in assay [6] amounted to 14000 M⁻¹ s⁻¹. The EC50 (read off the curve) is 6 µg/mL in assay [7]; about 7 µg/mL in [9]; about 7 µg/mL in assay [10]; about 7 µg/mL in [11]; about 7 µg/mL in assay [12].

B2: rAb-58 (recombinant monoclonal NMO-IgG) (antibody, V domains shown)
VH: VQLVESGGGLVQPGGSLRLSCAASGFTFRGYAMNWVRQAPGKGLEWVASISGSGSITQYADSAKGRFTITRDNSKSTLYAHVSSLRADDTAVYYCAKGDYVFDYWGQGTLVTVSS
VL: DIQMTQSPSALSASVGDTVTITCRASQSIRSWLAWYQQKPGKAPKLLIYKASDLQSGVPSRFSGSGSGTDFTLTISGLQPDDFATYYCQHYNSYPYTFGQGTKVEIRR
notes: Human recombinant IgG made in HEK293 cells
On to B2, for which the Kd in [8] was 147 nM. In [9], the “EC50 (read off the curve)” value was about 10 µg/mL and the Kd was 68 nM.
